Reference: patent publication US20120165503A1 (Merck Sharp & Dohme, published 2012)
*1 amine or outer side, *2 acyl side, *3 side chain or, on linkers, in order; H or OH if unused. Where no end group is shown, it is not given here. Side-chain parts run from the residue outwards. [ ]: non-standard residue; d: D form. The star is where a group is joined. O‑methyl‑L‑homoserine = COCC[C@H](N[*:1])C(=O)[*:2]; γGlu = O=C(O)[C@H](CCC(=O)[*:2])N[*:1]; Stearoyl = CCCCCCCCCCCCCCCCCC(=O)*; Palmitoyl = CCCCCCCCCCCCCCCC(=O)*; Myristoyl = CCCCCCCCCCCCCC(=O)*; Nle = CCCC[C@H](N)C(=O)O; Aib = CC(C)(N)C(=O)O

Tests used:
human glucagon receptor [1] = target: T1, human glucagon receptor (human, UniProt P47871 26-477); test: cell-based or functional assay
T1 sequence (P47871 26-477): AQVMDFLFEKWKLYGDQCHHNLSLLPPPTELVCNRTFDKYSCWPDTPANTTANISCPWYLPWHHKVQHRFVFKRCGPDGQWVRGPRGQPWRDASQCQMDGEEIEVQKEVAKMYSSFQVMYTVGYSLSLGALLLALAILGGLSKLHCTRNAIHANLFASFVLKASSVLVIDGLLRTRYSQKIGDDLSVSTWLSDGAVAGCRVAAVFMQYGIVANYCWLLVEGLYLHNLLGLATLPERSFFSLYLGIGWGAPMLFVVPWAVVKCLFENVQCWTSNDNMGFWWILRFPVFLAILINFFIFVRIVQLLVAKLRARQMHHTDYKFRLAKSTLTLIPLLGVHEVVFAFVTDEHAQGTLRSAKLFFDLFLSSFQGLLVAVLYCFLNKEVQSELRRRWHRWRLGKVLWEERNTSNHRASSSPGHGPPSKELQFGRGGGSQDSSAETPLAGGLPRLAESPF

human GLP-1 receptor [2] = target: T2, human GLP-1 receptor (human, UniProt P43220 24-463); test: cell-based or functional assay
human glucagon receptor [3] = target: T1, human glucagon receptor; test: cell-based or functional assay; remark: listed apart in the source
human GLP-1 receptor [4] = target: T2, human GLP-1 receptor; test: cell-based or functional assay; remark: listed apart in the source
[5] = target: T3, glucagon receptor of wild-type mice (liver, in vivo) (mouse, UniProt Q61606 27-485); test: in vivo GCGR receptor occupancy, competition assay in wild-type mice, 3 mpk s.c.
T3 construct: whole, on cells; Receptor occupancy measured in vivo in liver; also called GCGR; GGCR
T3 sequence (Q61606 27-485): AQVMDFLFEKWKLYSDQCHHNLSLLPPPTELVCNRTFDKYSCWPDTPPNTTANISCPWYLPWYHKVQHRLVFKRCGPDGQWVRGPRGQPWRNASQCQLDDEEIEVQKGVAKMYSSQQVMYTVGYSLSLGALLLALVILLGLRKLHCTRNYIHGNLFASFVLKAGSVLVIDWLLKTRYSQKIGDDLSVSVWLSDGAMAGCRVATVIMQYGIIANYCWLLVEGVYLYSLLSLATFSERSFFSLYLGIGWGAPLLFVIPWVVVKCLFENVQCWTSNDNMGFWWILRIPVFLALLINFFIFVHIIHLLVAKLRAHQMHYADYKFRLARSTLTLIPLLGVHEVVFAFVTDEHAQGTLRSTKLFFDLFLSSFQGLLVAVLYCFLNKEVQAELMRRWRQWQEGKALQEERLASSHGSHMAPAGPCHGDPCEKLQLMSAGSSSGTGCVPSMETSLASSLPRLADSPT

human glucagon receptor [6] = target: T1, human glucagon receptor; test: cell-based or functional assay; remark: listed apart in the source
human GLP-1 receptor [7] = target: T2, human GLP-1 receptor; test: cell-based or functional assay; remark: listed apart in the source

Binder: H[dS]QGTFTSDK([homocysteic acid-homocysteic acid-Palmitoyl])SKYLDERRAQDFVQWLMNTK[γGlu]-NH2 [MM116]
- hGCGR EC50 (human glucagon receptor [1]): 0.85 nM
- hGLP-1R EC50 (human GLP-1 receptor [2]): 0.132 nM

B1: MM115 (peptide)
peptide: H[dS]QGTFTSDK([Arg-Arg-Palmitoyl])SKYLDERRAQDFVQWLMNTK[γGlu]-NH2
modifications: N-terminus assumed
SMILES: CCCCCCCCCCCCCCCC(=O)N[C@@H](CCCNC(=N)N)C(=O)N[C@@H](CCCNC(=N)N)C(=O)NCCCC[C@H](NC(=O)[C@H](CC(=O)O)NC(=O)[C@H](CO)NC(=O)[C@@H](NC(=O)[C@H](Cc1ccccc1)NC(=O)[C@@H](NC(=O)CNC(=O)[C@H](CCC(N)=O)NC(=O)[C@@H](CO)NC(=O)[C@@H](N)Cc1c[nH]cn1)[C@@H](C)O)[C@@H](C)O)C(=O)N[C@@H](CO)C(=O)N[C@@H](CCCCN)C(=O)N[C@@H](Cc1ccc(O)cc1)C(=O)N[C@@H](CC(C)C)C(=O)N[C@@H](CC(=O)O)C(=O)N[C@@H](CCC(=O)O)C(=O)N[C@@H](CCCNC(=N)N)C(=O)N[C@@H](CCCNC(=N)N)C(=O)N[C@@H](C)C(=O)N[C@@H](CCC(N)=O)C(=O)N[C@@H](CC(=O)O)C(=O)N[C@@H](Cc1ccccc1)C(=O)N[C@H](C(=O)N[C@@H](CCC(N)=O)C(=O)N[C@@H](Cc1c[nH]c2ccccc12)C(=O)N[C@@H](CC(C)C)C(=O)N[C@@H](CCSC)C(=O)N[C@@H](CC(N)=O)C(=O)N[C@H](C(=O)N[C@@H](CCCCN)C(=O)N[C@@H](CCC(N)=O)C(=O)O)[C@@H](C)O)C(C)C
- hGCGR EC50 (human glucagon receptor [1]): 1.31 nM
- hGLP-1R EC50 (human GLP-1 receptor [2]): 1.08 nM

Binder: H[dS]QGTFTSDK([dE-dE-Palmitoyl])SKYLDERRAQDFVQWLMNTK[γGlu]-NH2 [MM117]
- hGCGR EC50 (human glucagon receptor [1]): 0.25 nM
- hGLP-1R EC50 (human GLP-1 receptor [2]): 0.93 nM

B2: OXM414 (peptide)
peptide: H[dS]QGTFTSDK([γGlu-Palmitoyl])SKYLDERRAQDFVQWLMNTK[γGlu]-NH2
modifications: N-terminus assumed
SMILES: CCCCCCCCCCCCCCCC(=O)N[C@@H](CCC(=O)NCCCC[C@H](NC(=O)[C@H](CC(=O)O)NC(=O)[C@H](CO)NC(=O)[C@@H](NC(=O)[C@H](Cc1ccccc1)NC(=O)[C@@H](NC(=O)CNC(=O)[C@H](CCC(N)=O)NC(=O)[C@@H](CO)NC(=O)[C@@H](N)Cc1c[nH]cn1)[C@@H](C)O)[C@@H](C)O)C(=O)N[C@@H](CO)C(=O)N[C@@H](CCCCN)C(=O)N[C@@H](Cc1ccc(O)cc1)C(=O)N[C@@H](CC(C)C)C(=O)N[C@@H](CC(=O)O)C(=O)N[C@@H](CCC(=O)O)C(=O)N[C@@H](CCCNC(=N)N)C(=O)N[C@@H](CCCNC(=N)N)C(=O)N[C@@H](C)C(=O)N[C@@H](CCC(N)=O)C(=O)N[C@@H](CC(=O)O)C(=O)N[C@@H](Cc1ccccc1)C(=O)N[C@H](C(=O)N[C@@H](CCC(N)=O)C(=O)N[C@@H](Cc1c[nH]c2ccccc12)C(=O)N[C@@H](CC(C)C)C(=O)N[C@@H](CCSC)C(=O)N[C@@H](CC(N)=O)C(=O)N[C@H](C(=O)N[C@@H](CCCCN)C(=O)N[C@@H](CCC(N)=O)C(=O)O)[C@@H](C)O)C(C)C)C(=O)O
- hGCGR EC50 (human glucagon receptor [1]): 0.005 nM
- hGLP-1R EC50 (human GLP-1 receptor [2]): 0.007 nM
- hGCGR + 20% plasma EC50 (human glucagon receptor [3]): 0.15 nM
- hGLP-1R + 20% Plasma EC50 (human GLP-1 receptor [4]): 0.07 nM

B3: OXM70 (peptide)
peptide: HXQGTFTSDYSKYLDSRRAQDFVQWLMNTKRNRNNIAC
modifications: Aib at position 2; C4 = Cys(cholest-5-en-3-yl{[(2R)-3-amino-2-(amino)-3-oxopropyl]thio}acetate) at position 38; C-terminal amide
- % RO @ 3 mpk s.c. [5]: ~0%
- GCGR + 10% plasma (human glucagon receptor [6]): 169 nM
- GCGR EC50 (human glucagon receptor [6]): 2.4 nM
- GLP-1R EC50 (human GLP-1 receptor [7]): 0.15 nM

B4: MM121 (peptide)
peptide: H[dS]QGTFTSDK([γGlu-γGlu-Myristoyl])SKYLD[Aib]RRAQDFVQWLMNTK[γGlu]-NH2
modifications: N-terminus assumed
SMILES: CCCCCCCCCCCCCC(=O)N[C@@H](CCC(=O)N[C@@H](CCC(=O)NCCCC[C@H](NC(=O)[C@H](CC(=O)O)NC(=O)[C@H](CO)NC(=O)[C@@H](NC(=O)[C@H](Cc1ccccc1)NC(=O)[C@@H](NC(=O)CNC(=O)[C@H](CCC(N)=O)NC(=O)[C@@H](CO)NC(=O)[C@@H](N)Cc1c[nH]cn1)[C@@H](C)O)[C@@H](C)O)C(=O)N[C@@H](CO)C(=O)N[C@@H](CCCCN)C(=O)N[C@@H](Cc1ccc(O)cc1)C(=O)N[C@@H](CC(C)C)C(=O)N[C@@H](CC(=O)O)C(=O)NC(C)(C)C(=O)N[C@@H](CCCNC(=N)N)C(=O)N[C@@H](CCCNC(=N)N)C(=O)N[C@@H](C)C(=O)N[C@@H](CCC(N)=O)C(=O)N[C@@H](CC(=O)O)C(=O)N[C@@H](Cc1ccccc1)C(=O)N[C@H](C(=O)N[C@@H](CCC(N)=O)C(=O)N[C@@H](Cc1c[nH]c2ccccc12)C(=O)N[C@@H](CC(C)C)C(=O)N[C@@H](CCSC)C(=O)N[C@@H](CC(N)=O)C(=O)N[C@H](C(=O)N[C@@H](CCCCN)C(=O)N[C@@H](CCC(N)=O)C(=O)O)[C@@H](C)O)C(C)C)C(=O)O)C(=O)O
- hGCGR EC50 (human glucagon receptor [1]): 0.006 nM
- hGLP-1R EC50 (human GLP-1 receptor [2]): 0.131 nM

B5: MM132 (peptide)
peptide: H[dS]QGTFTSDK([γGlu-γGlu-Stearoyl])SKYLD[Aib]RRAQDFVQWLMNTK[γGlu]-NH2
modifications: N-terminus assumed
SMILES: CCCCCCCCCCCCCCCCCC(=O)N[C@@H](CCC(=O)N[C@@H](CCC(=O)NCCCC[C@H](NC(=O)[C@H](CC(=O)O)NC(=O)[C@H](CO)NC(=O)[C@@H](NC(=O)[C@H](Cc1ccccc1)NC(=O)[C@@H](NC(=O)CNC(=O)[C@H](CCC(N)=O)NC(=O)[C@@H](CO)NC(=O)[C@@H](N)Cc1c[nH]cn1)[C@@H](C)O)[C@@H](C)O)C(=O)N[C@@H](CO)C(=O)N[C@@H](CCCCN)C(=O)N[C@@H](Cc1ccc(O)cc1)C(=O)N[C@@H](CC(C)C)C(=O)N[C@@H](CC(=O)O)C(=O)NC(C)(C)C(=O)N[C@@H](CCCNC(=N)N)C(=O)N[C@@H](CCCNC(=N)N)C(=O)N[C@@H](C)C(=O)N[C@@H](CCC(N)=O)C(=O)N[C@@H](CC(=O)O)C(=O)N[C@@H](Cc1ccccc1)C(=O)N[C@H](C(=O)N[C@@H](CCC(N)=O)C(=O)N[C@@H](Cc1c[nH]c2ccccc12)C(=O)N[C@@H](CC(C)C)C(=O)N[C@@H](CCSC)C(=O)N[C@@H](CC(N)=O)C(=O)N[C@H](C(=O)N[C@@H](CCCCN)C(=O)N[C@@H](CCC(N)=O)C(=O)O)[C@@H](C)O)C(C)C)C(=O)O)C(=O)O
- hGCGR EC50 (human glucagon receptor [1]): 0.004 nM
- hGLP-1R EC50 (human GLP-1 receptor [2]): 0.024 nM

B6: OXM418 (peptide)
peptide: H[dS]QGTFTSDK([γGlu-γGlu-Palmitoyl])SKYLD[Aib]RRAQDFVQWLMNTK[γGlu]-NH2
modifications: N-terminus assumed
SMILES: CCCCCCCCCCCCCCCC(=O)N[C@@H](CCC(=O)N[C@@H](CCC(=O)NCCCC[C@H](NC(=O)[C@H](CC(=O)O)NC(=O)[C@H](CO)NC(=O)[C@@H](NC(=O)[C@H](Cc1ccccc1)NC(=O)[C@@H](NC(=O)CNC(=O)[C@H](CCC(N)=O)NC(=O)[C@@H](CO)NC(=O)[C@@H](N)Cc1c[nH]cn1)[C@@H](C)O)[C@@H](C)O)C(=O)N[C@@H](CO)C(=O)N[C@@H](CCCCN)C(=O)N[C@@H](Cc1ccc(O)cc1)C(=O)N[C@@H](CC(C)C)C(=O)N[C@@H](CC(=O)O)C(=O)NC(C)(C)C(=O)N[C@@H](CCCNC(=N)N)C(=O)N[C@@H](CCCNC(=N)N)C(=O)N[C@@H](C)C(=O)N[C@@H](CCC(N)=O)C(=O)N[C@@H](CC(=O)O)C(=O)N[C@@H](Cc1ccccc1)C(=O)N[C@H](C(=O)N[C@@H](CCC(N)=O)C(=O)N[C@@H](Cc1c[nH]c2ccccc12)C(=O)N[C@@H](CC(C)C)C(=O)N[C@@H](CCSC)C(=O)N[C@@H](CC(N)=O)C(=O)N[C@H](C(=O)N[C@@H](CCCCN)C(=O)N[C@@H](CCC(N)=O)C(=O)O)[C@@H](C)O)C(C)C)C(=O)O)C(=O)O
- hGCGR EC50 (human glucagon receptor [1]): 0.002 nM
- hGLP-1R EC50 (human GLP-1 receptor [2]): 0.026 nM
- hGCGR + 20% plasma EC50 (human glucagon receptor [3]): 0.3 nM
- hGLP-1R + 20% Plasma EC50 (human GLP-1 receptor [4]): 0.3 nM

Binder: H[Aib]QGTFTSDYSKYLDSRRAQDFVQWL[O‑methyl‑L‑homoserine]NTKRNRNNIAC(cholesterol)-NH2 [OXM213]
- GCGR + 10% plasma (human glucagon receptor [6]): 1210 nM
- GCGR EC50 (human glucagon receptor [6]): 27.6 nM
- GLP-1R EC50 (human GLP-1 receptor [7]): 0.3 nM

B7: MM127 (peptide)
peptide: H[dS]QGTFTSDK([γGlu-γGlu-Palmitoyl])SKYLD[Aib]RAAQDFVQWLMDTK[γGlu]-NH2
modifications: N-terminus assumed
SMILES: CCCCCCCCCCCCCCCC(=O)N[C@@H](CCC(=O)N[C@@H](CCC(=O)NCCCC[C@H](NC(=O)[C@H](CC(=O)O)NC(=O)[C@H](CO)NC(=O)[C@@H](NC(=O)[C@H](Cc1ccccc1)NC(=O)[C@@H](NC(=O)CNC(=O)[C@H](CCC(N)=O)NC(=O)[C@@H](CO)NC(=O)[C@@H](N)Cc1c[nH]cn1)[C@@H](C)O)[C@@H](C)O)C(=O)N[C@@H](CO)C(=O)N[C@@H](CCCCN)C(=O)N[C@@H](Cc1ccc(O)cc1)C(=O)N[C@@H](CC(C)C)C(=O)N[C@@H](CC(=O)O)C(=O)NC(C)(C)C(=O)N[C@@H](CCCNC(=N)N)C(=O)N[C@@H](C)C(=O)N[C@@H](C)C(=O)N[C@@H](CCC(N)=O)C(=O)N[C@@H](CC(=O)O)C(=O)N[C@@H](Cc1ccccc1)C(=O)N[C@H](C(=O)N[C@@H](CCC(N)=O)C(=O)N[C@@H](Cc1c[nH]c2ccccc12)C(=O)N[C@@H](CC(C)C)C(=O)N[C@@H](CCSC)C(=O)N[C@@H](CC(=O)O)C(=O)N[C@H](C(=O)N[C@@H](CCCCN)C(=O)N[C@@H](CCC(N)=O)C(=O)O)[C@@H](C)O)C(C)C)C(=O)O)C(=O)O
- hGCGR EC50 (human glucagon receptor [1]): 0.004 nM
- hGLP-1R EC50 (human GLP-1 receptor [2]): 0.004 nM

Binder: H[Aib]QGTFTSDYSKYLDSRRAQDFVQWL[Nle]NTKRNRNNIAC(cholesterol)-NH2 [OXM212]
- % Activation of GCGR (human glucagon receptor [6]): 115%
- GCGR + 10% plasma (human glucagon receptor [6]): 1030 nM
- GCGR + 10% plasma (fold shift) (human glucagon receptor [6]): 92 fold
- GCGR EC50 (human glucagon receptor [6]): 11.3 nM
- GLP-1R EC50 (human GLP-1 receptor [7]): 0.6 nM
